In paper PMC5727262, “Molecular mechanism of K65 acetylation-induced attenuation of Ubc9 and the NDSM interaction” (Scientific Reports, 2017):

What was measured:
[1] = target: Ac-Ubc9K65 (Ubc9 acetylated at K65) (UniProt P63279); experiment: ITC; 2 μl additions of peptide to 200 μl of WT Ubc9 or Ac-Ubc9K65; 25 °C; pH 8.0, 20 mM potassium phosphate, 100 mM NaCl; iTC200; fitted assuming 1:1 binding stoichiometry
Ubc9 (wild type) = Ubc9 (wild type) (UniProt P63279); experiment: as above
Sequence of Ubc9 (wild type) (P63279 whole entry): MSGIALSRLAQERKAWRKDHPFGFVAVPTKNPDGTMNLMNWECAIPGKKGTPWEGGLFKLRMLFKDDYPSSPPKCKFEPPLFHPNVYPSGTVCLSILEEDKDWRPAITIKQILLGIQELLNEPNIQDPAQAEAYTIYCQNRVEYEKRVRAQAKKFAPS

Sequence of Ac-Ubc9K65 (Ubc9 acetylated at K65) (P63279 whole entry): as above

| Substance | Kd [1] | Kd (Ubc9 (wild type)) |
| --- | --- | --- |
| Calpain2 NDSM peptide | 80 µM | 56 µM |
| Elk1 NDSM peptide (from UniProt P19419 242-261) | 103 µM | 70 µM |
| RanGAP1 peptide (consensus sumoylation motif) (from UniProt P46060 517-536) | 13 µM | 13 µM |
